Data from article PMC6002344.
Ends that are not written are not given here. * marks the point of attachment. Dansyl = CN(C)c1cccc2c(S(=O)(=O)*)cccc12

Biological target: PDZ1 NHERF1 Y38W
Assay: FRET or BRET; equilibrium fluorescence titration, FRET between Trp38 (donor) and dansyl (acceptor), excitation 280 nm; 50 mM Na phosphate, pH 7.2, 300 mM NaCl, 5 mM DTT, 20% DMSO, 25 °C; without RS5517

Kd: 10 µM
Binder: Dansyl-NDSLL [Dansyl-NDSLL, dansylated peptide of the C-terminal sequence of the β2-adrenergic receptor]
